The target in assay [1] is T1, human CD52 (wildtype) (human, not fully specified (residue 3); also: N-linked glycan, GPI anchor).
T1 construct: also called huCD52; hCD52
T1 chain: GQNDTSQTSSPS
Put plainly: flow cytometry, human CD4+ T cells from PBMC, FITC goat F(ab)2 anti-human Fc gamma secondary, GraphPad Prism fit (Example 29). A general note: In flow cytometry, cells or beads pass a laser one at a time.
Method: (§1) The EC₅₀ values of chimeric and humanized anti-CD52 antibodies were estimated using CD4+ T cells isolated from healthy donor PBMCs obtained from commercial sources (Bioreclamation, NY, USA). CD4+ T cells were isolated by negative selection using an EasySep kit (Stem Cell Technologies). […] Briefly, human CD4+ T cells were isolated from 50 ml of peripheral blood from healthy volunteers (Bioreclamation), and huCD52 transgenic mouse CD4+ T cells were isolated from spleen tissue. Cells were rinsed with PBS/5% FBS and deposited into round-bottom 96 well plates at 1×10⁵ cells per well. Primary antibody staining was done with an 8 point serial dilution (1:3) of each anti-CD52 chimeric and humanized antibody starting at 100 μg/mL. […] Cells were washed 3 times in ice-cold PBS/5% FBS before and after each incubation. Cells were fixed with PBS containing 2% methanol-free paraformaldehyde and evaluated by flow cytometry. The flow cytometry data was analyzed using GraphPad Prism software to determine an EC₅₀ value with 95% confidence interval.

The target of assay [2] is T1, human CD52 (wildtype). Nature of the assay: flow cytometry, huCD52 transgenic mouse CD4+ T cells, FITC goat F(ab)2 anti-human Fc gamma secondary, GraphPad Prism fit (Example 29).
Method: as §1
In assay [3] the target is T1, human CD52 (wildtype). Put plainly: flow cytometry, CHO-CD52 cells, 12-point titration.
Method: The EC50 values of selected anti-CD52 antibodies were estimated using CHO cells engineered to express CD52. CHO-CD52 cells were trypsinized in 0.25% trypsin, collected, and rinsed with PBS/5% FBS. Cells were then deposited into round-bottom 96 well plates at 1E5 cells per well. Primary antibody staining was done with a 12 point serial dilution (1:2) of each anti-CD52 chimeric antibody starting at 50 μg/mL. […] Cells were washed 3 times in ice-cold PBS/5% FBS before and after each incubation. Cells were fixed with PBS containing 2% methanol-free paraformaldehyde and evaluated by flow cytometry.
The target in assay [4] is T2, MUT 6 alanine-scanning mutant hCD52 peptide (human).
T2 construct: Synthetic
T2 peptide: GQNDTAQTSSPSADC
Put plainly: Biacore T100 SPR, antibody immobilized, peptide injected at up to 500 nM. (In general: In SPR one partner is held on a chip, and binding of the other changes the refractive index at the surface.)
From the text: (§2) The carboxymethyl dextran surface was activated using a 1:1 mixture of 0.1M N-hydroxysuccinimide (NHS) and 0.4M N-ethyl-N′-(3-dimethylaminopropyl)carbodiimide hydrochloride (EDC), allowing the surface to bind reactive amine groups on the antibodies. […] Following antibody immobilization, the reactive sensor chip surface was quenched using 1M ethanolamine hydrochloride/NaOH pH 8.5. One flow cell on each chip was a blank reference surface, and subsequent flow cells were immobilized with 10,000 RU of antibody.
(§3) Peptides were diluted into the assay running buffer, HBS-EP+ (10 mM HEPES, 150 mM NaCl, 0.05% P20 surfactant, 3 mM EDTA, pH 7.4). Duplicates of 100 nM samples were included. […] The T100 instrument sample chamber and assay temperatures were set to 4° C. and 25° C., respectively. The human CD52 peptide samples were injected for five minutes at a 50 μl/min flow rate to measure association, and washed in HBS-EP+ for five minutes at a 50 μl/min flow rate to measure dissociation. The antibody surface was stripped of any remaining bound peptide using a sixty second injection of 10 mM glycine-HCl pH 2.0 at a 50 μl/min flow rate. Analysis was performed using Biacore T100 Kinetics Evaluation software v2.0 (GE Healthcare). Data was fit to a 1:1 model with reference flow cell and 0 nM concentration subtraction (double-reference subtraction).

In assay [5] the target is T3, MUT 2 alanine-scanning mutant hCD52 peptide (human).
T3 construct: Synthetic
T3 peptide: GANDTSQTSSPSADC
The assay is described as above.
From the text: as §2, §3

In assay [6] the target is T4, WT 1 wildtype human CD52 peptide (human, not fully specified (residue 15); printed as GQNDTSQTSSPSADK-Biotin).
T4 construct: Synthetic
T4 peptide: GQNDTSQTSSPSADK-{Biotin′}
Described as above.
From the text: as §2, §3

Assay [7] addresses T5, MUT 12 alanine-scanning mutant hCD52 peptide (human).
T5 construct: Synthetic
T5 peptide: GQNDTSQTSSPAADC
The assay is described as above.
From the text: as §2, §3

Assay [8] addresses T6, MUT 10 alanine-scanning mutant hCD52 peptide (human).
T6 construct: Synthetic
T6 peptide: GQNDTSQTSAPSADC
Described as above.
From the text: as §2, §3

The target in assay [9] is T7, MUT 9 alanine-scanning mutant hCD52 peptide (human).
T7 construct: Synthetic
T7 peptide: GQNDTSQTASPSADC
Described as above.
From the text: as §2, §3

Assay [10] deals with T8, MUT 7 alanine-scanning mutant hCD52 peptide (human).
T8 construct: Synthetic
T8 peptide: GQNDTSATSSPSADC
The description is as above.
From the text: as §2, §3

For assay [11], the target named is T9, MUT 3 alanine-scanning mutant hCD52 peptide (human).
T9 construct: Synthetic
T9 peptide: GQADTSQTSSPSADC
Described as above.
From the text: as §2, §3

The target of assay [12] is T10, MUT 1 alanine-scanning mutant hCD52 peptide (human).
T10 construct: Synthetic
T10 peptide: AQNDTSQTSSPSADC
The assay is described as above.
From the text: as §2, §3

The target in assay [13] is T11, MUT 5 alanine-scanning mutant hCD52 peptide (human).
T11 construct: Synthetic
T11 peptide: GQNDASQTSSPSADC
The assay is described as above.
From the text: as §2, §3

Assay [14] deals with T12, MUT 8 alanine-scanning mutant hCD52 peptide (human).
T12 construct: Synthetic
T12 peptide: GQNDTSQASSPSADC
The description is as above.
From the text: as §2, §3

In assay [15] the target is T1, human CD52 (wildtype). Nature of the assay: flow cytometry, CHO-CD52 cells.
Assay [16] deals with T1, human CD52 (wildtype). Put plainly: flow cytometry, CD4+ T cells, 8-point titration.
Method: as §1
Assay [17] deals with T13, MUT 4 alanine-scanning mutant hCD52 peptide (human).
T13 construct: Synthetic
T13 peptide: GQNATSQTSSPSADC
Nature of the assay: Biacore T100 SPR, antibody immobilized, peptide injected at up to 500 nM.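 Also: Amine-coupled antibody (10,000 RU), 25 °C in HBS-EP+ pH 7.4, 5 min association then 5 min dissociation, 1:1 fit with blank flow cell and 0 nM double-referencing.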
From the text: as §2, §3

Assay [18] addresses T7, MUT 9 alanine-scanning mutant hCD52 …. Put plainly: Biacore T100, antibody immobilised on a CM5 chip, peptide injected.
From the text: as §2, §3

Data on nine molecules can be found in patent publication US20120100152A1 (Sanofi, published 2012).

Primed or numbered codes have the meaning given here. Ends that are not written are not given here. Biotin′ = not defined here

B1: Campath-1H® (alemtuzumab) (antibody, IgG1, V domains shown)
VH: QVQLQESGPGLVRPSQTLSLTCTVSGFTFTDFYMNWVRQPPGRGLEWIGFIRDKAKGYTTEYNPSVKGRVTMLVDTSKNQFSLRLSSVTAADTAVYYCAREGHTAAPFDYWGQGSLVTVSS
VL: DIQMTQSPSSLSASVGDRVTITCKASQNIDKYLNWYQQKPGKAPKLLIYNTNNLQTGVPSRFSGSGSGTDFTFTISSLQPEDIATYYCLQHISRPRTFGQGTKVEIKR
notes: Humanized IgG1/kappa; also called C1H; C-1H; copies: 2 + 2
Broadly, the EC50 is the concentration at which the effect is half-maximal. B1: the EC50 with human CD52 (wildtype) [1] was 21.9 nM; with human CD52 (wildtype) [2], 25.1 nM; with human CD52 (wildtype) [3], 1.36 µg/mL.

B2: humanized antibody 9D9-H16/K13 (antibody, V domains shown)
VH: EVQLLESGGGLVQPGGSLRLSCAASGFTFSDAWMDWVRQAPGKGLELVSEIRNKAKNHATYYAESVKGRFTISRDNSKNTLYLQMNSLRAEDTAVYYCTTLDSWGQGTTVTVSS
VL: DIVMTQTPLSLSVTPGQPASISCKSSQSLLDSDGKTYLNWLLQKPGQSPQRLIYLVSALDSGVPDRFSGSGSGTDFTLKISRVEAEDVGVYYCWQGTHFPWTFGQGTKLEIKR
In the case of B2, the binding result in assay [4], in [5], in assay [6], in [7], in assay [8] and in assay [9] was “binds” each time. In addition, the binding result in [10], in [11], in [12], in assay [13] and in assay [14] was “binds” in each case.

B3: chimeric 9D9 antibody (antibody, human IgG1, V domains shown)
VH: EVKLEESGGGLVQPGGSMKLSCAASGFTFSDAWMDWVRQSPEKGLELTAEIRNKAKNHATYYAESVKGRFTISRDDSKSRVYLQMNSLRTEDTGIYYCTTLDSWGQGTSVTVSS
VL: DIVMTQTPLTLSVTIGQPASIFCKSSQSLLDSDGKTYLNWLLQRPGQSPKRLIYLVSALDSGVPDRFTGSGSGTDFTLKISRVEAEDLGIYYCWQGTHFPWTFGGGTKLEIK
notes: also called 9D9-Chi; 9D9-chimeric
For the molecule B3, the EC50 with human CD52 (wildtype) [15] was 5 to 7 µg/mL; with human CD52 (wildtype) [3], 6.05 µg/mL.

B4: humanized antibody 4B10-H1/K1 (antibody, V domains shown)
VH: EVQLVESGGGLVQPGGSLRLSCAASGFTFSDYYMSWVRQAPGKGLEWVGFIRNKANGYTTEYSASVKGRFTISRDDSKNSLYLQMNSLKTEDTAVYYCARYIWFDYWGQGTTVTVSS
VL: DIVMTQTPLSLSVTPGQPASISCRSSQSLVHTNGNTYLHWYLQKPGQSPQLLIYMVSNRFSGVPDRFSGSGSGTDFTLKISRVEAEDVGVYYCSQSAHVPPLTFGQGTRLEIKR
notes: also called 4B10-Humanized; 4B10 humanized (H1/K1)
B4 yielded an EC50 with human CD52 (wildtype) [3] of 2.23 µg/mL.

B5: chimeric 12G6 antibody (antibody, human IgG1, V domains shown)
VH: EVQLEESGGGLVQPGGSMKLSCVASGFPFSNYWMNWVRQSPEKGLEWVAQIRLKSNNYATHYAESVKGRFTIARDDSKSSVYLQMNNLRAEDTGIYYCTPIDYWGQGTTLTVSS
VL: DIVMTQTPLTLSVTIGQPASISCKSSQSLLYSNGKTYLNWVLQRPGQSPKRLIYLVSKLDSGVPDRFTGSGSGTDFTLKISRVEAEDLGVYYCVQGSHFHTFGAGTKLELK
notes: also called 12G6-Chi; 12G6-chimeric
Turning to B5, the EC50 was determined as 22.4 nM with human CD52 (wildtype) [1], 34.4 nM with human CD52 (wildtype) [2] and 0.95 µg/mL in the assay with human CD52 (wildtype) [3].

B6: chimeric 2C3 antibody (antibody, human IgG1, V domains shown)
VH: EVKLEESGGGLVQPGGSMKLSCVASGFTFNTYWMNWVRQSPEKGLEWVAQIRLKSNNYATHYAESVKGRFTISRDDSKNSVYLQMNNLRAEDTGIYYCTPVDFWGQGTTLTVSS
VL: DIVITQTPLTLSVTIGQPVSISCKSSQSLLYSNGKTYLNWLLQRPGQSPKRLIYLVSKLDSGVPDRFTGSGSGTDFTLKISRVEAEDLGVYYCVQGTHLHTFGAGTKLELK
notes: also called 2C3-Chi; 2C3-chimeric
In the case of B6, the EC50 is 25.9 nM with human CD52 (wildtype) [1], 30.8 nM in the assay with human CD52 (wildtype) [2] and 1.32 µg/mL with human CD52 (wildtype) [3].

B7: humanized antibody 12G6-SFD1/K11 (antibody, human IgG1, V domains shown)
VH: EVQLVESGGGLVQPGGSLRLSCAASGFPFSNYWMNWVRQAPGKGLEWVGQIRLKSNNYATHYAESVKGRFTISRDDSKNSLYLQMNSLKTEDTAVYYCTPIDYWGQGTTVTVSS
VL: DIVMTQTPLSLSVTPGQPASISCKSSQSLLYSNGKTYLNWVLQKPGQSPKRLIYLVSKLDSGVPDRFSGSGSGTDFTLKISRVEAEDVGVYYCVQGSHFHTFGQGTKLEIK
notes: also called 12G6 K11; 12G6 hu
B7: the EC50 with human CD52 (wildtype) [1] turned out to be 7.3 nM; with human CD52 (wildtype) [2] it was 13.2 nM.

B8: humanized antibody 2C3-SFD1/K12 (antibody, V domains shown)
VH: EVQLVESGGGLVQPGGSLRLSCAASGFTFNTYWMNWVRQAPGKGLEWVGQIRLKSNNYATHYAESVKGRFTISRDDSKNSLYLQMNSLKTEDTAVYYCTPVDFWGQGTTVTVSS
VL: DIVMTQTPLSLSVTPGQPASISCKSSQSLLYSNGKTYLNWLLQKPGQSPQRLIYLVSKLDSGVPDRFSGSGSGTDFTLKISRVEAEDVGVYYCVQGTHLHTFGQGTRLEIKR
notes: also called 2C3 K12; 2C3 unmodified
Take B8: the EC50 worked out at 11 nM in the assay with human CD52 (wildtype) [1] and 13.6 nM in the assay with human CD52 (wildtype) [2]. In the assay with human CD52 (wildtype) [16], the “fold lower EC50 than Campath-1H®” value turned out to be 2 fold. Further, the binding result in assay [4], in [5], in assay [6], in assay [7], in [8] and in assay [17] was “binds” in each case. The binding result in [9], in assay [11], in [12] and in [13] was “binds” each time.

B9: humanized antibody 12G6-SFD1/K12 (antibody, V domains shown)
VH: EVQLVESGGGLVQPGGSLRLSCAASGFPFSNYWMNWVRQAPGKGLEWVGQIRLKSNNYATHYAESVKGRFTISRDDSKNSLYLQMNSLKTEDTAVYYCTPIDYWGQGTTVTVSS
VL: DIVMTQTPLSLSVTPGQPASISCKSSQSLLYSNGKTYLNWVLQKPGQSPQRLIYLVSKLDSGVPDRFSGSGSGTDFTLKISRVEAEDVGVYYCVQGSHFHTFGQGTKLEIKR
notes: also called 12G6 K12; GLD52
The molecule B9 returned an EC50 with human CD52 (wildtype) [1] of 10.6 nM. Besides, the binding result in [4], in assay [5], in [6], in assay [7], in [8] and in [17] was “binds” throughout. Further, the binding result in assay [11], in assay [12], in assay [13] and in [18] was “binds” each time.
